# Laboratory results taken from patent US20240034757A1 (OXFORD UNIVERSITY INNOVATION, published 2024).
# Positions count from the first letter of the chain named. In names and notes the source's numbering stands.
# B1: P1243:G4S:P1156 (designed binder)
# chain: RNHTEDNSTEYYDYEEARCACPARHLNNTNGTVLKLLGCHYFCNGTLCTAPDGYPCYNLTAQQVRTLTTYPNTSCAVGVCMKGTCVKNGTMEQCFKTPGGGGSADDDNELFTVQYCGMNCTKDEGGTWTGCTGKKEGCKCYHESGKNYGLCLSTEYTDFSQYGNPSDSEIEAAKPKRSDTLSH
# Tests used:
# CXCL6_HUMAN = target: T1, CXCL6_HUMAN (human, UniProt P80162 38-114); assay: BLI [Cont.) C]
# T1 sequence: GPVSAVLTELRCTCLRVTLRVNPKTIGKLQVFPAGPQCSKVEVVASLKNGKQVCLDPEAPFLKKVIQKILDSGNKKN
# CXCL1_HUMAN = target: T2, CXCL1_HUMAN (human, UniProt P09341 35-107); assay: BLI [Cont.) C]
# T2 sequence: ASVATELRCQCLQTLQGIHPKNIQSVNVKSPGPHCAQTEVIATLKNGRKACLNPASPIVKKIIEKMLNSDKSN
# CXCL11_HUMAN = target: T3, CXCL11_HUMAN (human, UniProt O14625 22-94); assay: BLI [Cont.) C]
# T3 sequence: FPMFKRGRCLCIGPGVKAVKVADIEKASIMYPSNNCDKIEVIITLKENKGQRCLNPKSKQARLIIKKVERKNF
# CXCL5_HUMAN = target: T4, CXCL5_HUMAN (human, UniProt P42830 41-114); assay: BLI [Cont.) C]
# T4 sequence: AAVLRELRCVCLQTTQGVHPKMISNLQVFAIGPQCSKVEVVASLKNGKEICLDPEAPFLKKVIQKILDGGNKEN
# CXCL7_HUMAN = target: T5, CXCL7_HUMAN (human, UniProt P02775 59-128); assay: BLI [Cont.) C]
# T5 sequence: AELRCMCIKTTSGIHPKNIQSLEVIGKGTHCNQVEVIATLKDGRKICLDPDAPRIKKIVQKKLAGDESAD
# CXCL9_HUMAN = target: T6, CXCL9_HUMAN (human, UniProt Q07325 23-125); assay: BLI [Cont.) C]
# T6 sequence: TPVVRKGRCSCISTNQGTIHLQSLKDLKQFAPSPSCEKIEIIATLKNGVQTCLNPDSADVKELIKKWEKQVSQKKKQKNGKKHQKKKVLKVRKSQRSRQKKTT
# CXCL2_HUMAN = target: T7, CXCL2_HUMAN (human, UniProt P19875 35-107); assay: BLI [Cont.) C]
# T7 sequence: T2 sequence with S2P, V3L, P20L, N27K, R48Q, I58M, N68K, S69N, D70G
# CXCL8_HUMAN = target: T8, CXCL8_HUMAN (human, UniProt P10145 28-99); assay: BLI [Cont.) C]
# T8 sequence: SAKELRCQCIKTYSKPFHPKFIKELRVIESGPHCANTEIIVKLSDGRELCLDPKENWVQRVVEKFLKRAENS
# CXCL10_HUMAN = target: T9, CXCL10_HUMAN (human, UniProt P02778 22-98); assay: BLI [Cont.) C]
# T9 sequence: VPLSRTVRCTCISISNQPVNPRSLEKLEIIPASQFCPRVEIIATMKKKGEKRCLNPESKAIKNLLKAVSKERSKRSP
# CXCL12_HUMAN = CXCL12_HUMAN (human, UniProt P48061 22-89); assay: BLI [Cont.) C]
# CXCL3_HUMAN = target: T10, CXCL3_HUMAN (human, UniProt P19876 35-107); assay: BLI [Cont.) C]
# T10 sequence: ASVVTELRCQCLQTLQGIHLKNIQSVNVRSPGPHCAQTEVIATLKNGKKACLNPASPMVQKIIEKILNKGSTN
# CCL20_HUMAN = CCL20_HUMAN (human, UniProt P78556 27-96); assay: BLI
# CCL11_HUMAN = CCL11_HUMAN (human, UniProt P51671 24-97); assay: BLI
# CCL3L1_HUMAN = target: T11, CCL3L1_HUMAN (human, UniProt P16619 24-93); assay: BLI
# T11 sequence: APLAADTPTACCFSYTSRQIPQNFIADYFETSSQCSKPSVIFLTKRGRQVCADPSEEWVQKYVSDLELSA
# CCL17_HUMAN = target: T12, CCL17_HUMAN (human, UniProt Q92583 24-94); assay: BLI
# T12 sequence: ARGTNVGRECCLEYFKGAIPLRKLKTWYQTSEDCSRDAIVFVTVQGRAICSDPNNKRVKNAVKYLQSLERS
# CCL7_HUMAN = CCL7_HUMAN (human, UniProt P80098 24-99); assay: BLI
# CCL18_HUMAN = target: T13, CCL18_HUMAN (human, UniProt P55774 21-89); assay: BLI
# T13 sequence: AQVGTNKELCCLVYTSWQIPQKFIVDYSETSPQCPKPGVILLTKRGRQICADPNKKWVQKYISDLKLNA
# CCL19_HUMAN = target: T14, CCL19_HUMAN (human, UniProt Q99731 22-98); assay: BLI
# T14 sequence: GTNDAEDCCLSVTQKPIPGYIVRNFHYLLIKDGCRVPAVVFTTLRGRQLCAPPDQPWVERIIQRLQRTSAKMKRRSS
# CCL24_HUMAN = target: T15, CCL24_HUMAN (human, UniProt O00175 27-104); assay: BLI
# T15 sequence: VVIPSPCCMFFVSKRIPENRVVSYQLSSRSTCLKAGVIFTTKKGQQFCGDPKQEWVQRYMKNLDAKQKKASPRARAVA
# CCL3_HUMAN = target: T16, CCL3_HUMAN (human, UniProt P10147 24-92); assay: BLI
# T16 sequence: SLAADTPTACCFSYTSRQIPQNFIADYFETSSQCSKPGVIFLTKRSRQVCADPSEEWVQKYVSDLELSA
# CCL27_HUMAN = target: T17, CCL27_HUMAN (human, UniProt Q9Y4X3 25-112); assay: BLI
# T17 sequence: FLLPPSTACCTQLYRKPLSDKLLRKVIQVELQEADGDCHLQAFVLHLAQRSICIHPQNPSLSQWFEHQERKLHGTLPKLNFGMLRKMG
# CCL4L1_HUMAN = target: T18, CCL4L1_HUMAN (human, UniProt Q8NHW4 24-92); assay: BLI
# T18 sequence: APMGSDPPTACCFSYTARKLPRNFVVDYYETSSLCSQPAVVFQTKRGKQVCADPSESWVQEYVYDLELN
# Chain of CCL20_HUMAN (P78556 27-96 limits assumed): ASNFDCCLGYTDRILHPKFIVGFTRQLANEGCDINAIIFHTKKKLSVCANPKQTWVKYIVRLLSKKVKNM
# Chain of CXCL12_HUMAN (P48061 22-89 limits assumed): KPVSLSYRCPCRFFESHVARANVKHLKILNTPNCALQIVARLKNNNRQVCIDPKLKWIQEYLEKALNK
# Chain of CCL11_HUMAN (P51671 24-97 limits assumed): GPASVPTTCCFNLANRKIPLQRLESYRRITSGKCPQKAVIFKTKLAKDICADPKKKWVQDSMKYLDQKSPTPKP
# Chain of CCL7_HUMAN (P80098 24-99 limits assumed): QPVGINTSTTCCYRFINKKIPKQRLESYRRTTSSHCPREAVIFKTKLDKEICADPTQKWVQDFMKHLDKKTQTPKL
binder,measurement,setting,value
B1,binding result,CXCL6_HUMAN,no binding (tested: 300 nM)
same,Kd,CXCL1_HUMAN,17.4 nM
same,binding result,CXCL11_HUMAN,no binding (tested: 300 nM)
same,binding result,CXCL5_HUMAN,no binding (tested: 300 nM)
same,binding result,CXCL7_HUMAN,no binding (tested: 300 nM)
same,binding result,CXCL9_HUMAN,no binding (tested: 300 nM)
same,binding result,CXCL2_HUMAN,no binding (tested: 300 nM)
same,Kd,CXCL8_HUMAN,7.63 nM
same,binding result,CXCL10_HUMAN,no binding (tested: 300 nM)
same,binding result,CXCL12_HUMAN,no binding (tested: 300 nM)
same,binding result,CXCL3_HUMAN,no binding (tested: 300 nM)
same,binding result,CCL20_HUMAN,no binding (tested: 300 nM)
same,Kd,CCL11_HUMAN,19.7 nM
same,Kd,CCL3L1_HUMAN,4.06 nM
same,Kd,CCL17_HUMAN,3.51 nM
same,Kd,CCL7_HUMAN,49 nM
same,Kd,CCL18_HUMAN,0.543 nM
same,Kd,CCL19_HUMAN,2.92 nM
same,Kd,CCL24_HUMAN,16.4 nM
same,Kd,CCL3_HUMAN,16.4 nM
same,Kd,CCL27_HUMAN,24.4 nM
same,binding result,CCL4L1_HUMAN,no binding (tested: 300 nM)
